Consider 3 molecules from patent US20040018977A1 (published 2004).

For this experiment, the target named is T1, NCK2, aa 1-380, Activation Domain (AD) fusion (human, UniProt O43639 1-380).
T1 construct: range 1-380; Also used for the sentences that name NCK2 as a partner of the cytoplasmic domain
The experiment in a line: yeast two-hybrid matrix mating assay, beta-gal read-out. The protocol:
Matrix Mating Haploid cells for the PathCalling matrix mating assay are grown up individually in 384 well plates using selective liquid media. After 1-2 days, the mating is done entirely in a nutrient rich media. The resulting diploid cells are then selected using a selective liquid media. The optical density (O.D.) of the diploid cells is measured using a spectrophotometer to measure and the cells are then transferred to a fresh plate for a Beta-gal assay. This assay is performed to determine if there is an interaction between the two proteins being tested. The Beta-gal assay is performed as follows:
2. The β-gal buffer is made using the following (per 384 well plate): 7.1 ml Sigma water, 7.5 ml 4X Z-buffer, 0.3 ml 20% IGEPAL, 30 mg CPRG, 75 μl Lyticase (10,000 U/ml) and 3.30 μl of β-gal buffer is added to each well of the plate made in step 1 using a multi-drop 384.

T1 sequence (O43639 whole entry, the tested form may be a part): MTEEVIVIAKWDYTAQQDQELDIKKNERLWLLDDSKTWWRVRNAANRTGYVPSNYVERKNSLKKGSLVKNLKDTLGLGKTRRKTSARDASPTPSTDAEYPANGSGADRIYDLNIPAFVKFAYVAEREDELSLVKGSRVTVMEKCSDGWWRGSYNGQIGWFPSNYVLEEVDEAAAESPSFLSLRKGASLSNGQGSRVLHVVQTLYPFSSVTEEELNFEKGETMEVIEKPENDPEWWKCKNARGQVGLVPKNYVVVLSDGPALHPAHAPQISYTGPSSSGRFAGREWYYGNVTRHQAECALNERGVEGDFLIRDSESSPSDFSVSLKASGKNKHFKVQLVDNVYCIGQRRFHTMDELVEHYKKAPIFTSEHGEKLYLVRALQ

B1: CG51896-10, intracellular domain, aa 805-1047, Binding Domain (BD) fusion (other, not shown: large carriers)
chain: TKDMPPMGSPVIPTDLPLRASPSHIPSVVVLPITQQGYQHEYVDQPKMSEVAQMALEDQAATLEYKTIKEHLSSKSPNHGVNLVENLDSLPPKVPQREASLGPPGASLSQTGLSKRLEMHHSSSYGVDYKRSYPTNSLTRSHQATTLKRNNTNSSNSSHLSRNQSFGRGDNPPPAPQRVDSIQVHSSQPSGQAVTVSRQPSLNAYNSLTRSGLKRTPSLKPDVPPKPSFAPLSTSMKPNDACT
notes: also called NOV2r
Take B1: the binding result was “binds”.

B2: CG51896-10, intracellular domain, aa 690-1047, Binding Domain (BD) fusion (other)
chain: VCDHRRKDVAVVQRKEKELTHSRRGSMSSVTKLSGLFGDTQSKDPKPEAILTPLMHNGKLATPGNTAKMLIKADQHHLDLTALPTPESTPTLQQKRKPSRGSREWERNQNLINACTKDMPPMGSPVIPTDLPLRASPSHIPSVVVLPITQQGYQHEYVDQPKMSEVAQMALEDQAATLEYKTIKEHLSSKSPNHGVNLVENLDSLPPKVPQREASLGPPGASLSQTGLSKRLEMHHSSSYGVDYKRSYPTNSLTRSHQATTLKRNNTNSSNSSHLSRNQSFGRGDNPPPAPQRVDSIQVHSSQPSGQAVTVSRQPSLNAYNSLTRSGLKRTPSLKPDVPPKPSFAPLSTSMKPNDACT
notes: also called NOV2r
Turning to B2, the binding result was “binds”.

B3: CG51896-10, intracellular domain, aa 950-1047, Binding Domain (BD) fusion (other, not shown: large carriers)
chain: TLKRNNTNSSNSSHLSRNQSFGRGDNPPPAPQRVDSIQVHSSQPSGQAVTVSRQPSLNAYNSLTRSGLKRTPSLKPDVPPKPSFAPLSTSMKPNDACT
notes: also called NOV2r
As for B3, the binding result is on record as “binds”.
